Data on one substance can be found in publication PMC6796855.

The assay concerns the target GST-ATG16L1N (human) (UniProt Q676U5). Put plainly: pull-down; recombinant GST fusion (2–200 nM) on glutathione resin, incubated with 1.5 mg of a 1:3.5 mixture of wild-type and ATG7 KO PC-3 lysates; 20 mM Tris-HCl pH 8.0, 200 mM NaCl, 1 mM EDTA, 0.5% NP-40; immunoblot for GST and ATG5; fraction bound quantified.

Chain of native ATG12–ATG5 conjugate (Q9H1Y0 whole entry): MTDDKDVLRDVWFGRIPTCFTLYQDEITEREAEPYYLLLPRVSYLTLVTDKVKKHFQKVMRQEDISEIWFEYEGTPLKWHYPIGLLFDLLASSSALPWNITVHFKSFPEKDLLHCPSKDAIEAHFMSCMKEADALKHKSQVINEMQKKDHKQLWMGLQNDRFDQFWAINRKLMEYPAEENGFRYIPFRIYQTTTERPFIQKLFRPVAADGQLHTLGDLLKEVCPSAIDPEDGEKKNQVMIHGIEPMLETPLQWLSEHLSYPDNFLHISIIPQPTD
Chain of native ATG12–ATG5 conjugate (O94817 whole entry): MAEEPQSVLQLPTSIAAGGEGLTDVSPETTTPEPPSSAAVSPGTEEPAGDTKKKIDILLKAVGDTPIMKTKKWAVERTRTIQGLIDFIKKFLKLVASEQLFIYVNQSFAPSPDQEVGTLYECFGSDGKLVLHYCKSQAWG
Chain of GST-ATG16L1N (human) (Q676U5 1-69): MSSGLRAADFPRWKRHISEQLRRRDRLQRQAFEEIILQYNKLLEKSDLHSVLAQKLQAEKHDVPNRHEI

With “native ATG12–ATG5 conjugate (from UniProt Q9H1Y0 1-275; O94817 1-140) (complex)”, the fold higher affinity than unconjugated ATG5 was 10 fold.
